The record followed here is article PMC3664820 (Nucleic Acids Research, 2013).

The data set concerns the molecule itself. Put plainly: SEC. A general note: Size exclusion chromatography separates by hydrodynamic size, large species first.

B1: Lac repressor (first 331 residues, dimeric, without the C-terminal tetramerization domain) (domain or fragment)
chain: MKPVTLYDVAEYAGVSYQTVSRVVNQASHVSAKTREKVEAAMAELNYIPNRVAQQLAGKQSLLIGVATSSLALHAPSQIVAAIKSRADQLGASVVVSMVERSGVEACKAAVHNLLAQRVSGLIINYPLDDQDAIAVEAACTNVPALFLDVSDQTPINSIIFSHEDGTRLGVEHLVALGHQQIALLAGPLSSVSARLRLAGWHKYLTRNQIQPIAEREGDWSAMSGFQQTMQMLNEGIVPTAMLVANDQMALGAMRAITESGLRVGADISVVGYDDTEDSSCYIPPLTTIKQDFRLLGQTSVDRLLQLSQGQAVKGNQLLPVSLVKRKTTLA
B1: the binding result is listed as “binds”.
